Reference: PMC11516053, “Genomic Amplification of TBC1D31 Promotes Hepatocellular Carcinoma Through Reducing the Rab22A‐Mediated Endolysosomal Trafficking and Degradation of EGFR” (Advanced Science, 2024)

Target: T1, SFB-TBC1D31 (human, UniProt Q96DN5-1 1-1066)
T1 construct: In the SFB pull-down it was left on the streptavidin beads; in the GST pull-down it was eluted with biotin; source: HEK293T, transfected, purified (streptavidin-conjugated beads, eluted with biotin)
T1 sequence (looked up): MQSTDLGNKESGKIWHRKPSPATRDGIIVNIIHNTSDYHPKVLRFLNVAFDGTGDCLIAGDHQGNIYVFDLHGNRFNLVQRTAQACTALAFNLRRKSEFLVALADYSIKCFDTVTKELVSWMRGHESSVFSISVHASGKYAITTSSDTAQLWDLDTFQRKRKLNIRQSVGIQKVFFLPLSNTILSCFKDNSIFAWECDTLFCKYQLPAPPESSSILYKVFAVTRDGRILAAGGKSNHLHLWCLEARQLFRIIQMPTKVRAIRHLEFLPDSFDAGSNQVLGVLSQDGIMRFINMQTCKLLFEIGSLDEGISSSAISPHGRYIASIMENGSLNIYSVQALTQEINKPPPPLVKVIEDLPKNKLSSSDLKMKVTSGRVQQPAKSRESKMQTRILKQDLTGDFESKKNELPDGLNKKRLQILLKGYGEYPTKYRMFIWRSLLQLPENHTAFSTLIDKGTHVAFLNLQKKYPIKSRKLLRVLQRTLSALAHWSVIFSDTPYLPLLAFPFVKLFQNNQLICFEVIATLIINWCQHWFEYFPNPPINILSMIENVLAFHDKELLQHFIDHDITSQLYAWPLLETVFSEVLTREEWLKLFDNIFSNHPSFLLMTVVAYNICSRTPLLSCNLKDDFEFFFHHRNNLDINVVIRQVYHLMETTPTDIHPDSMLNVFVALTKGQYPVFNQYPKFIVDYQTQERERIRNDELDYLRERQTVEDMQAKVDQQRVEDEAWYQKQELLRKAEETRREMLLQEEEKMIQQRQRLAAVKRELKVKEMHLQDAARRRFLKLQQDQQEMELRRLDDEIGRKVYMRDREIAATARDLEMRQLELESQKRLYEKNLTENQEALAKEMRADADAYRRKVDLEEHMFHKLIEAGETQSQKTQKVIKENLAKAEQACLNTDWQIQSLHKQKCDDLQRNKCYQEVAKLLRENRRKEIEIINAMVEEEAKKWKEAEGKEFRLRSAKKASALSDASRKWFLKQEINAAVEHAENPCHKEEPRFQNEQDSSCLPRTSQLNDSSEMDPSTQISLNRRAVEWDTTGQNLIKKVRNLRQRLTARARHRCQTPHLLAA
Test: pull-down; GST pull-down in vitro: GST-Rab22A on Glutathione-Sepharose incubated with eluted SFB-TBC1D31 in NETN buffer, 3 h, 4 °C; detection by Flag antibody
Details: both partners purified

B1: GST-Rab22A (natural protein, human, UniProt Q9UL26 1-194, looked up)
chain: MALRELKVCLLGDTGVGKSSIVWRFVEDSFDPNINPTIGASFMTKTVQYQNELHKFLIWDTAGQERFRALAPMYYRGSAAAIIVYDITKEETFSTLKNWVKELRQHGPPNIVVAIAGNKCDLIDVREVMERDAKDYADSIHAIFVETSAKNAININELFIEISRRIPSTDANLPSGGKGFKLRRQPSEPKRSCC
notes: On glutathione beads in the GST pull-down; eluted with reduced glutathione for the SFB pull-down; source: E. coli BL21, purified (Glutathione-Sepharose)
B1: binds.
